For this test, the target named is phosphopeptide-ligated β2AR with a deletion of the third intracellular loop (β2ARppΔ238-267), in HDL particles (human), P07550. The test is described as follows: cell-based or functional assay.

B1: β-arrestin1, minimal cysteine and truncated variant of rat βarr1 (βarr1-MC-393), P29066 1-393 (protein, UniProt P29066 1-393, looked up)
chain: MGDKGTRVFKKASPNGKLTVYLGKRDFVDHIDLVDPVDGVVLVDPEYLKERRVYVTLTAAFRYGREDLDVLGLTFRKDLFVANVQSFPPAPEDKKPLTRLQERLIKKLGEHAYPFTFEIPPNLPSSVTLQPGPEDTGKAIGVDYEVKAFVAENLEEKIHKRNSVRLVIRKVQYAPERPGPQPTAETTRQFLMSDKPLHLEASLDKEIYYHGEPISVNVHVTNNTNKTVKKIKISVRQYADIVLFNTAQYKVPVAMEEADDTVAPSSTFSKVYTLTPFLANNREKRGLALDGKLKHEDTNLASSTLLREGANREILGIIVSYKVKVKLVVSRGGLLGDLASSDVAVELPFTLMHPKPKEEPPHREVPESETPVDTNLIELDTNDDDIVFEDFAR
B1: the fold increase of agonist affinity by the transducer was found to be 10 fold and the log IC50 of isoproterenol (ISO), competition radioligand binding, in the presence of βarr1 (no transducer: -6.91+/-0.04) was -7.63 log.

For the origin of these results see patent US20240101642A1.
